Experimental data published in PMC5339904.

How the values were obtained:
[1] = target: GCN4 leucine zipper fused to the β-lactamase fragments N-BLa and C-BLa; assay: split reporter (BiFC, NanoBiT); split β-lactamase; soluble N-BLa and C-BLa fusions co-expressed in the E. coli periplasm; read-out: ampicillin LD50 in liquid media by optical density
GpA0 G83I = assay: BLaTM 1.2 (split β-lactamase complementation, ampicillin resistance); details: E. coli JM83, 133 μM arabinose, n = 3, read off a plot
[2] = target: glycophorin A transmembrane domain G83I mutant, frame GpA+1, in BLaTM hybrid proteins; assay: split reporter (BiFC, NanoBiT); BLaTM 1.2 (ompA signal) in E. coli JM83; 133 μM arabinose plus 0.3 mM IPTG; ampicillin LD50 given relative to wild-type GpA+1 (=100%); library pairs first selected on ampicillin, then measured one by one; labels are N-BLa/C-BLa
[3] = target: glycophorin A transmembrane domain G83I mutant, frame GpA+1, in BLaTM hybrid proteins; assay: BLaTM 1.2 (split β-lactamase complementation, ampicillin resistance); details: E. coli JM83, 133 μM arabinose, n = 3, read off a plot
[4] = target: glycophorin A transmembrane domain G83I mutant, frame GpA+1, in BLaTM hybrid proteins; assay: BLaTM 1.1 (split β-lactamase complementation, ampicillin resistance); details: E. coli BL21; n = 4 separate transformations; parent: est. 160 µg/ml; read off a plot
[5] = target: quiescin sulfhydryl oxidase 2 transmembrane domain S8A mutant, in BLaTM hybrid proteins; assay: as above; details: E. coli BL21; n = 4 separate transformations; parent: est. 80 µg/ml; read off a plot

Chain of GCN4 leucine zipper fused to the β-lactamase fragments N-BLa and C-BLa (P03069 whole entry, the tested form may be a part): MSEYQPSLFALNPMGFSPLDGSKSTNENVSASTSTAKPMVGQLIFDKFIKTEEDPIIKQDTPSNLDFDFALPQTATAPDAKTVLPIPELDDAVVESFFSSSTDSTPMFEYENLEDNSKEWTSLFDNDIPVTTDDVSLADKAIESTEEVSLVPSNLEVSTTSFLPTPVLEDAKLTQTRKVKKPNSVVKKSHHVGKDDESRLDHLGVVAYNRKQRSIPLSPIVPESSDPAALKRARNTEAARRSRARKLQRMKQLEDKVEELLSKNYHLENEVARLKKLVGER

With “GCN4 leucine zipper fused to the β-lactamase fragments N-BLa and C-BLa” as the substance, how does the fold rise of the ampicillin LD50 on co-expression of both fragments [1] read?
Its fold rise of the ampicillin LD50 on co-expression of both fragments is 40 fold.

Which other: LD50 c(Amp) (GpA0 G83I; 0.1 mM IPTG, parent: est. 230 µg/ml) does the source give for GpA0 wt G83I here?
Its other: LD50 c(Amp) is 150 µg/mL.

What about the other: LD50 c(Amp) (GpA0 G83I; 0.2 mM IPTG, parent: est. 99 µg/ml) of the same substance?
The other: LD50 c(Amp) was 73 µg/mL.

What about the other: LD50 c(Amp) (GpA0 G83I; 0.3 mM IPTG, parent: est. 80 µg/ml) of the same substance?
Its other: LD50 c(Amp) is 52 µg/mL.

And the other: LD50 c(Amp) (GpA0 G83I; 0.4 mM IPTG, parent: est. 61 µg/ml)?
Its other: LD50 c(Amp) is 38 µg/mL.

And the other: LD50 c(Amp) (GpA0 G83I; 0.7 mM IPTG, parent: est. 30 µg/ml)?
Its other: LD50 c(Amp) is 24 µg/mL.

“glycophorin A transmembrane domain G83I mutant, frame GpA+1, in BLaTM hybrid proteins (domain or fragment)” was tested. Which LD50 in % of GpA+1 wt (% (GpA+1 wt = 100%)) [2] did it give?
Its LD50 in % of GpA+1 wt (% (GpA+1 wt = 100%)) is 29.

Which other: LD50 c(Amp) ([3]; 0.1 mM IPTG) does the source give for “glycophorin A transmembrane domain, wild type, frame GpA+1, in BLaTM hybrid proteins G83I” here?
Its other: LD50 c(Amp) is 120 µg/mL.

And the other: LD50 c(Amp) ([3]; 0.2 mM IPTG)?
The other: LD50 c(Amp) was 70 µg/mL.

And the other: LD50 c(Amp) ([3]; 0.3 mM IPTG, parent: est. 270 µg/ml)?
Its other: LD50 c(Amp) is 65 µg/mL.

What about the other: LD50 c(Amp) ([3]; 0.4 mM IPTG, parent: est. 140 µg/ml) of the same substance?
The other: LD50 c(Amp) was 43 µg/mL.

What about the other: LD50 c(Amp) ([3]; 0.5 mM IPTG, parent: est. 100 µg/ml) of the same substance?
Its other: LD50 c(Amp) is 32 µg/mL.

What about the other: LD50 c(Amp) ([3]; 0.7 mM IPTG, parent: est. 62 µg/ml) of the same substance?
Its other: LD50 c(Amp) is 27 µg/mL.

What about the other: LD50 c(Amp) [4] of the same substance?
The other: LD50 c(Amp) was 16 µg/mL.

“quiescin sulfhydryl oxidase 2 transmembrane domain, wild type, in BLaTM hybrid proteins S8A” was tested. Which other: LD50 c(Amp) [5] did it give?
Its other: LD50 c(Amp) is 38 µg/mL.
